{
  "source": "FireProtDB (doi:10.1021/bi00369a002)",
  "proteins": {"B1": {"name": "Tryptophan synthase alpha chain wild type, P0A877 (protein)", "chain": "MERYESLFAQLKERKEGAFVPFVTLGDPGIEQSLKIIDTLIEAGADALELGIPFSDPLADGPTIQNATLRAFAAGVTPAQCFEMLALIRQKHPTIPIGLLMYANLVFNKGIDEFYAQCEKVGVDSVLVADVPVEESAPFRQAALRHNVAPIFICPPNADDDLLRQIASYGRGYTYLLSRAGVTGAENRAALPLNHLVAKLKEYNAAPPLQGFGISAPDQVKAAIDAGAAGAISGSAIVKIIEQHINEPEKMLAALKVFVQPMKAATRS"}},
  "settings": "Escherichia coli (strain K12); pH 7.8; 25 °C; Urea; Absorbance; Potassium phosphate 10 mM; transition: 3; whole UniProt chain shown",
  "note": "“And” between values parts separate entries of the source, which are not always exact repeats. Identical values can stand only once.",
  "data": [
    {"protein": "B1", "values": [
      {"measurement": "denaturant m value", "result": "2.2 kcal/mol/M and 1.2 kcal/mol/M"},
      {"measurement": "denaturant midpoint (higher = more stable)", "result": "2.62 M and 4.18 M"}
    ]}
  ]
}
